Consider four molecules from patent US20120288914A1, “CRYSTAL STRUCTURE OF GLYPHOSATE ACETYLTRANSFERASE (GLYAT) AND METHODS OF USE” (PIONEER HI BRED INTERNATIONAL INC., priority 2009, published 2012).

The test system of one data set is R7 GLYAT. Description: inhibition of R7 GLYAT with respect to glyphosate. In kind it is biochemical, B. licheniformis. The source says: See PDB:2JDD for the atomic coordinates and structure factors of the X-ray crystal structure of the ternary complex of R7 GLYAT with AcCoA and 3PG and PDB:2JDC for the atomic coordinates and structure factors of the X-ray crystal structure of the binary complex of R7 GLYAT with oxidized CoA and sulfate bound in the glyphosate binding pocket. See Tables 11 and 12 for the atoms of the R7 GLYAT variant polypeptide and of AcCoA that contact 3PG (i.e., the substrate binding cavity) and the residues of R7 that contact AcCoA, respectively.

For data set [1] the following is noted: substrate glyphosate; cited from earlier work.

Turning to `O=C(O)[C@H](O)COP(=O)(O)O` [3-phosphoglycerate], the mode of inhibition entry with R7 GLYAT was “competitive inhibitor”.

B1: native GLYAT: naturally occurring glyphosate N-acetyltransferase from Bacillus licheniformis; SEQ ID NO: 3 (protein, listed as Bacillus licheniformis)
chain: MIEVKPINAEDTYEIRHRILRPNQPLEACMYETDLLGGAFHLGGYYRGKLISIASFHKAEHSELEGEEQYQLRGMATLEGYREQKAGSTLIRHAEELLRKKGADLLWCNARTSVSGYYEKLGFSEQGEVYDIPPIGPHILMYKKLT
modifications: ST401 GAT
In general, Km refers to the concentration of substrate that gives half-maximal velocity. Regarding B1, the Michaelis-Menten constant (Km) in data set [1] was 1270 µM.

B2: R7: GLYAT variant resulting from seven rounds of DNA shuffling of a native GLYAT polypeptide; SEQ ID NO: 1 (protein)
chain: MIEVKPINAEDTYELRHRILRPNQPIEACMFESDLLRGAFHLGGYYGGKLISIASFHQAEHSELQGQKQYQLRGMATLEGYREQKAGSSLIKHAEEILRKRGADLLWCNARTSASGYYKKLGFSEQGEVFDTPPVGPHILMYKRIT
modifications: R7 GLYAT variant polypeptide
Take B2: the Km in data set [1] was 240 µM.

B3: R11: GLYAT variant from the eleventh round of DNA shuffling; SEQ ID NO: 2 (protein)
chain: MIEVKPINAEDTYDLRHRVLRPNQPIEACMFESDLTRSAFHLGGFYGGKLISVASFHQAEHSELQGKKQYQLRGVATLEGYREQKAGSSLVKHAEEILRKRGADMIWCNARTSASGYYRKLGFSEQGEVFDTPPVGPHILMYKRIT
modifications: R11 GLYAT variant polypeptide
For B3, the Km in data set [1] was 55 µM.
